Ends that are not written are not given here.
Target: collagen
Experiment: Collagen-binding plate assay
Conditions: compared to Hep-SILY that does not contain aggregates
Description: The following method is used to assess the binding affinity of bioconjugates disclosed herein for collagen. Similar assays are employed to assess binding affinity of other targets (e.g., hyaluronic acid, ICAM, VCAM, selectin).
Collagen-binding of bioconjugate variants was compared by a plate-assay, in which collagen was coated on 96-well plates. Collagen was coated on high-bind plates at 50 μg/mL in 0.02 N acetic acid for 1 hour at room temperature. Unbound collagen was rinsed with 1×PBS pH 7.4. Plates were then blocked in 1% milk in 1×PBS solution for 1 hour at room temperature.
Bioconjugate variants containing biotinlyated peptides were dissolved to a final concentration of 1 mg/mL in 1% milk in 1×PBS pH 7.4. From this solution, a 10× serial dilution was performed. Molecules were then incubated on the blocked collagen-coated plates and incubated for 15 minutes at room temperature. Plates were then rinsed 3 times with 1×PBS in 1% BSA and 0.2% Tween20.
Bound molecules were detected by streptavidin-HRP, which was diluted 1:500 in 1×PBS with 1% BSA and 0.2% Tween20 and incubated 200 μL/well for 20 minutes at room temperature. Streptavidin solution was rinsed from the plates 3 times with 1×PBS with 0.2% Tween20. […] Absorbance in the well was then measured at 450 nm and binding affinity was plotted in a dose-response by absorbance vs. concentration.

collagen binding affinity (EC50): higher affinity (lower EC50 values)
B1: Hep-SILY containing aggregates: Hep-SILY made with modified purification, containing ionically interacting non-covalently bound SILY peptide; high molecular weight aggregates (conjugate)
peptide 1: RRANAALKAGELYKSILYGSG
peptide 2: RRANAALKAGELYKSILYGSG
peptide 3: RRANAALKAGELYKSILYGSG
modifications: also: conjugated to heparin (glycan) via hydrazide-carbonyl linkage, non-covalent high molecular weight aggregates
